T1: PRPF40A N-ext-WW12 (residues 56-236) (human, UniProt O75400 56-236)
T1 construct: PRPF40A isoform 1, residues 56-236: N-terminal proline-rich region and both WW domains; pETM11 vector; also called Nter Ext WW12; N-terminal extended WW12 construct; source: E. coli BL21(DE3), purified (Ni-NTA, TEV cleavage, reverse Ni-NTA, SEC); not shown: His6, N-terminal, cleaved
T1 sequence (looked up): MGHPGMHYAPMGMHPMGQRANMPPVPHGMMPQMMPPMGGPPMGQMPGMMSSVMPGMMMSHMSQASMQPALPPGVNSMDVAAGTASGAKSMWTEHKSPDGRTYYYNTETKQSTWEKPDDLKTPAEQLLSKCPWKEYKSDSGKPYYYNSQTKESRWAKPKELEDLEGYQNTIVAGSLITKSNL

B1: GB1-tagged SF3A1 Middle Pro (364-413) (domain or fragment, UniProt Q15459 364-413, looked up)
chain: EGQKVPPPPETPMPPPLPPTPDQVIVRKDYDPKASKPLPPAPAPDEYLVS
notes: SF3A1 residues 364-413, proline-rich region with a PPLP motif; also called SF3A1 region (364-413); source: E. coli BL21(DE3), purified (Ni-NTA, SEC), GB1 tag kept; not shown: GB1, N-terminal, kept
B2: GB1-tagged SF1 Pro ABCD (410-639) (domain or fragment, UniProt Q15637 410-639, looked up)
chain: GHPMQHNPNGPPPPWMQPPPPPMNQGPHPPGHHGPPPMDQYLGSTPVGSGVYRLHQGKGMMPPPPMGMMPPPPPPPSGQPPPPPSGPLPPWQQQQQQPPPPPPPSSSMASSTPLPWQQNTTTTTTSAGTGSIPPWQQQQAAAAASPGAPQMQGNPTMVPLPPGVQPPLPPGAPPPPPPPPPGSAGMMYAPPPPPPPPMDPSNFVTMMGMGVAGMPPFGMPPAPPPPPPQN
notes: SF1 residues 410-639, the whole proline-rich C-terminal region; also called complete C-terminal region of SF1; source: E. coli BL21(DE3), purified (Ni-NTA, SEC), GB1 tag kept; not shown: GB1, N-terminal, kept
B3: GB1-tagged SF1 Pro D (594-639) (domain or fragment, UniProt Q15637 594-639, looked up)
chain: GMMYAPPPPPPPPMDPSNFVTMMGMGVAGMPPFGMPPAPPPPPPQN
notes: SF1 residues 594-639; also called the very C-terminal region; source: E. coli BL21(DE3), purified (Ni-NTA, SEC), GB1 tag kept; not shown: GB1, N-terminal, kept
B4: GB1-polyproline peptide P19 (peptide)
chain: GAMSGSPPPPPPPPPPPPPPPPPPPSGSN
notes: common N-terminal residues after the TEV site (TEVsite-GAMSGS-peptide-SGSN); 19 consecutive prolines; common C-terminal residues; pET24 vector with 6xHis, GB1 and TEV site as N-terminal cassette, not cleaved; also called polyproline length 19; source: E. coli BL21(DE3), purified (Ni-NTA, SEC); not shown: GB1, N-terminal, kept
B5: GB1-polyproline peptide P22 (peptide)
chain: GAMSGSPPPPPPPPPPPPPPPPPPPPPPSGSN
notes: common N-terminal residues after the TEV site (TEVsite-GAMSGS-peptide-SGSN); 22 consecutive prolines; common C-terminal residues; pET24 vector with 6xHis, GB1 and TEV site as N-terminal cassette, not cleaved; also called polyproline length 22; source: E. coli BL21(DE3), purified (Ni-NTA, SEC); not shown: GB1, N-terminal, kept
B6: GB1-polyproline peptide P13 (peptide)
chain: GAMSGSPPPPPPPPPPPPPSGSN
notes: common N-terminal residues after the TEV site (TEVsite-GAMSGS-peptide-SGSN); 13 consecutive prolines; common C-terminal residues; pET24 vector with 6xHis, GB1 and TEV site as N-terminal cassette, not cleaved; also called polyproline length 13; source: E. coli BL21(DE3), purified (Ni-NTA, SEC); not shown: GB1, N-terminal, kept
B7: GB1-polyproline peptide P29 (peptide)
chain: GAMSGSPPPPPPPPPPPPPPPPPPPPPPPPPPPPPSGSN
notes: common N-terminal residues after the TEV site (TEVsite-GAMSGS-peptide-SGSN); 29 consecutive prolines; common C-terminal residues; pET24 vector with 6xHis, GB1 and TEV site as N-terminal cassette, not cleaved; also called polyproline length 29; source: E. coli BL21(DE3), purified (Ni-NTA, SEC); not shown: GB1, N-terminal, kept
B8: GB1-polyproline peptide P8 (peptide)
chain: GAMSGSPPPPPPPPSGSN
notes: common N-terminal residues after the TEV site (TEVsite-GAMSGS-peptide-SGSN); 8 consecutive prolines; common C-terminal residues; pET24 vector with 6xHis, GB1 and TEV site as N-terminal cassette, not cleaved; also called polyproline length 8; source: E. coli BL21(DE3), purified (Ni-NTA, SEC); not shown: GB1, N-terminal, kept
B9: GB1-polyproline peptide P25 (peptide)
chain: GAMSGSPPPPPPPPPPPPPPPPPPPPPPPPPSGSN
notes: common N-terminal residues after the TEV site (TEVsite-GAMSGS-peptide-SGSN); 25 consecutive prolines; common C-terminal residues; pET24 vector with 6xHis, GB1 and TEV site as N-terminal cassette, not cleaved; also called polyproline length 25; source: E. coli BL21(DE3), purified (Ni-NTA, SEC); not shown: GB1, N-terminal, kept
B10: GB1-SF1(470-485) 16-mer peptide (peptide)
chain: GAMSGSMPPPPMGMMPPPPPPPSGSN
notes: common N-terminal residues after the TEV site (TEVsite-GAMSGS-peptide-SGSN); SF1 (splicing factor 1) residues 470-485; common C-terminal residues; pET24 vector with 6xHis, GB1 and TEV site as N-terminal cassette, not cleaved; source: E. coli BL21(DE3), purified (Ni-NTA, SEC); not shown: GB1, N-terminal, kept
B11: GB1-SF1(425-440) 16-mer peptide (peptide)
chain: GAMSGSMQPPPPPMNQGPHPPGSGSN
notes: common N-terminal residues after the TEV site (TEVsite-GAMSGS-peptide-SGSN); SF1 (splicing factor 1) residues 425-440; common C-terminal residues; pET24 vector with 6xHis, GB1 and TEV site as N-terminal cassette, not cleaved; source: E. coli BL21(DE3), purified (Ni-NTA, SEC); not shown: GB1, N-terminal, kept
B12: GB1-SF1(478-493) 16-mer peptide (peptide)
chain: GAMSGSMPPPPPPPSGQPPPPPSGSN
notes: common N-terminal residues after the TEV site (TEVsite-GAMSGS-peptide-SGSN); SF1 (splicing factor 1) residues 478-493; common C-terminal residues; pET24 vector with 6xHis, GB1 and TEV site as N-terminal cassette, not cleaved; source: E. coli BL21(DE3), purified (Ni-NTA, SEC); not shown: GB1, N-terminal, kept
B13: GB1-SF1(623-638) 16-mer peptide (peptide)
chain: GAMSGSMPPFGMPPAPPPPPPQSGSN
notes: common N-terminal residues after the TEV site (TEVsite-GAMSGS-peptide-SGSN); SF1 (splicing factor 1) residues 623-638; common C-terminal residues; pET24 vector with 6xHis, GB1 and TEV site as N-terminal cassette, not cleaved; source: E. coli BL21(DE3), purified (Ni-NTA, SEC); not shown: GB1, N-terminal, kept

Here are results for 13 molecules from publication PMC11079029, “Intramolecular autoinhibition regulates the selectivity of PRPF40A tandem WW domains for proline-rich motifs” (Nature Communications, 2024).

“And” between values parts separate entries of the source, which are not always exact repeats. Equal values may be shown once.

In one assay the target is T2, PRPF40A WW12 (tandem WW domains, residues 141-236) (human, UniProt O75400 141-236).
T2 construct: pETM11 vector, NcoI/KpnI; 15N or 13C,15N labelled for NMR; also called PRPF40A WW tandem; PRPF40A tandem WW domains; source: E. coli BL21(DE3), purified (Ni-NTA, TEV, reverse Ni-NTA, SEC); not shown: His6, N-terminal, cleaved
Description: ITC; GB1-tagged SF1/SF3A1 constructs in the syringe and the WW tandem in the cell; 25 °C, 20 mM sodium phosphate pH 6.5, 100 mM NaCl; one-site model; apparent affinities. The following applies: both partners purified.
For the molecule B1, the Kd was approximately 10 µM.

With B2, the “stoichiometry N” value is 3 PRPF40A tandems per SF1 construct.

On to B3, for which the Kd is approximately 10 µM.

Another assay concerns the target T3, PRPF40A WW12 (tandem WW domains, residues 141-236) (human, UniProt O75400 141-236).
T3 construct: pETM11 vector (NcoI/KpnI); also called PRPF40A WW tandem; isolated WW domains; source: E. coli BL21(DE3), purified (Ni-NTA, TEV cleavage, reverse Ni-NTA, SEC); not shown: His6, N-terminal, cleaved
The assay can be described thus: ITC; MicroCal PEAQ-ITC, 25 °C, 20 mM sodium phosphate pH 6.5, 100 mM NaCl; GB1-polyproline peptides in the cell, WW12 in the syringe (N sites >1: more than one WW tandem on one peptide); one-site model; apparent. The following applies: both partners purified. In general terms: Isothermal titration calorimetry measures the heat released or taken up as one component is titrated into another.
As to B4, the Kd is 7.02 µM and 6.5 µM and 6.76 µM.

B5: the Kd was 8.84 µM and 9.73 µM and 9.29 µM.

In the case of B6, the Kd was 7.58 µM and 10.6 µM and 7.45 µM and 8.54 µM.

As to B7, the Kd was 7.3 µM and 11 µM and 9.15 µM.

Consider B8, for which the Kd is more than 50 µM.

As to B9, the Kd is 10.5 µM and 11 µM and 10.8 µM.

The next assay has as its target T1, PRPF40A N-ext-WW12 (residues 56-236). The assay can be described thus: ITC; MicroCal PEAQ-ITC, 25 °C, 20 mM sodium phosphate pH 6.5, 100 mM NaCl; PRPF40A constructs and GB1-tagged SF1 16-mer peptides; who was in the syringe is not stated for these panels (Fig. 2B, Fig. 5C); one-site model. The following applies: both partners purified.
Take B10: the Kd is more than 250 µM.

The next assay concerns the target T3, PRPF40A WW12 (tandem WW domains, …). The description is as above. The settings on record: both partners purified.
As for B11, the Kd was 15.9 µM and 21.8 µM and 22.9 µM and 20.2 µM.

Regarding B12, the Kd was 8.26 µM and 10.3 µM and 10.2 µM and 9.59 µM.

Regarding B13, the Kd was 21.8 µM and 24.8 µM and 23.3 µM.
